# Measured values as given in patent US20190030180A1.
# B1: IgG1-YW327.6S2 (antibody, from another filing, V domains shown)
# VH: EVQLVESGGGLVQPGGSLRLSCAASGFSLSGSWIHWVRQAPGKGLEWVGWINPYRGYAYYADSVKGRFTISADTSKNTAYLQMNSLRAEDTAVYYCAREYSGWGGSSVGYAMDYWGQGTLVTVSS
# VL: DIQMTQSPSSLSASVGDRVTITCRASQDVSTAVAWYQQKPGKAPKLLIYSASFLYSGVPSRFSGSGSGTDFTLTISSLQPEDFATYYCQQSYTTPPTFGQGTKVEIK
# Target: human AXL (full length) (human) (UniProt P30530)
# Test: flow cytometry; A431 cells pre-incubated with 10 µg/mL Gas6
# Chain of UniProt P30530 (P30530 26-894 limits assumed): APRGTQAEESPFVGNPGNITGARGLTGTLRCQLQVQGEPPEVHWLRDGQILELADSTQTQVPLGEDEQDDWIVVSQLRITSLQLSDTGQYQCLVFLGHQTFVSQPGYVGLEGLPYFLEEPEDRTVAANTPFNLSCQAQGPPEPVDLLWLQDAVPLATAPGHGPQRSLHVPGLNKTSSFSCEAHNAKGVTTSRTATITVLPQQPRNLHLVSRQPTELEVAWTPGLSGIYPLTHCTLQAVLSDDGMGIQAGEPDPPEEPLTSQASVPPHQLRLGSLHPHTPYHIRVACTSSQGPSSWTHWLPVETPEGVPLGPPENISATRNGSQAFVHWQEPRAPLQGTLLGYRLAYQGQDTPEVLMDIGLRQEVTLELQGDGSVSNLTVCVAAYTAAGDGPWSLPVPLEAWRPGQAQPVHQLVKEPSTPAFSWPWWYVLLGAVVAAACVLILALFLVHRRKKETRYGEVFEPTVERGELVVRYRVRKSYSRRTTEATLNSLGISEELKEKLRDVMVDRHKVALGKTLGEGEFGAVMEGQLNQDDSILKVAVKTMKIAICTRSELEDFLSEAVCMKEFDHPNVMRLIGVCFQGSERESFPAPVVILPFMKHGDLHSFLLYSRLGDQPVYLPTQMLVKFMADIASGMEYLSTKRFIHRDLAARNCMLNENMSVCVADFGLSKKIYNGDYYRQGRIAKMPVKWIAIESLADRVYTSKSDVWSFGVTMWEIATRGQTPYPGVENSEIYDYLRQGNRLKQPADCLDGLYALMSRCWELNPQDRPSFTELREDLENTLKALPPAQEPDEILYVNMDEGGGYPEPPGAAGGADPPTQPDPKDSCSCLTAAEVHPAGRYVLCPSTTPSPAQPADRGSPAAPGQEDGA
binder,measurement,value
B1,fold change of EC50 with Gas6 pre-incubation against without Gas6,21 fold
same,maximal binding in presence of Gas6 (% of binding in absence of Gas6),19%
